Residue numbers refer to the chain shown, from its start. Read-outs that look alike come from different tables or passages of the source. Each block holds one binder with its values, some of them ahead of it.
How the values were obtained:
human PDGF-BB [1] = target: T1, human PDGF-BB (human); test: SPR, Fab fragment; assay format for PDGF not described
T1 construct: The ELISA text names human PDGF-BB of Cell Signaling, Cat. No 8921BF
T1 chain: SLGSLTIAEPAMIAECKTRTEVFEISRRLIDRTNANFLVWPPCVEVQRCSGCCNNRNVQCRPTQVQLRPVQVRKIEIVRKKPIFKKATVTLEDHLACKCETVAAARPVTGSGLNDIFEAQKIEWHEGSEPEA

human PDGF-BB [2] = target: T1, human PDGF-BB; test: as above
human VEGF121-His [3] = target: T2, human VEGF121-His (human, UniProt P15692 207-395); test: SPR, VEGF121-His captured via anti-His antibody on C1 chip, Fab as analyte, single cycle kinetics
T2 construct: Captured by an anti-His antibody on the chip; not shown: His tag
T2 sequence: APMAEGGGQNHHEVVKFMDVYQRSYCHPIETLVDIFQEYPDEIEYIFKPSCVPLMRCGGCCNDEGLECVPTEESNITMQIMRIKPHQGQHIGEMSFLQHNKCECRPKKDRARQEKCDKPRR
Description: (§1) An anti-His capturing antibody (GE Healthcare 28995056) was immobilized to a Series S Sensor Chip C1 (GE Healthcare 29104990) using standard amine coupling chemistry resulting in a surface densitiy of approximately 500 resonance units (RU). As running and dilution buffer, HBS-P+ (10 mM HEPES, 150 mM NaCl pH 7.4, 0.05% Surfactant P20) was used. […] The surface was regenerated by injecting 10 mM Glycine pH 1.5 for 60s. […] Curve fitting was performed using the 1:1 Langmuir binding model within the Biacore evaluation software. To provide more robust fitting, the Multiple Rmax option was chosen for global fitting using both ligand densities.

human VEGF121-His [4] = target: T2, human VEGF121-His; test: as above; remark: listed apart in the source
Description: as §1

human PDGF-BB [5] = target: T1, human PDGF-BB; test: SPR, Fab fragment; assay format for PDGF not described
cynomolgus PDGF = target: T3, cynomolgus PDGF (cynomolgus); test: as above
T3 construct: Printed only as cynomolgus PDGF

minipig PDGF = target: T4, minipig PDGF (minipig); test: as above
T4 construct: Printed only as minipig PDGF; also called Minpig PDGF
T4 sequence (P20034 whole entry, looked up): SLGSPAVAEPAVIAE

rabbit PDGF = target: T5, rabbit PDGF (rabbit); test: as above
T5 construct: Printed only as rabbit PDGF

B1: bispecific anti-VEGF/anti-PDGF-B Fab fragment P1AE2845 (Fab, V domains shown)
VH: EEQLVESGGGLVQPGGSLRLSCAASGWWFEYTDMSWVRQAPGQGLEWVGSISPSGGSTYYNTNFIGRFTISRDDSKNTLYLQMNSLRDEDTAVYYCARDEGYFDEWGQGTLVTVSS
VL: AIQMTQSPSSLSASVGDRVTITCQASYWLHKYLAWYQQKPGQAPKLLIYDASELEYGVPDRFSGSGSGTDFTLTISSLEPEDFAVYYCQNYRYHPYTFGQGTKLEIKR
notes: DutaFab: one VH/VL pair carries both paratopes; Expressed in E. coli TG1
Kd (human PDGF-BB [1]): 95 nM
koff (human PDGF-BB [1]): 0.0779 s⁻¹
kon (human PDGF-BB [1]): 824000 M⁻¹ s⁻¹
t½ (human PDGF-BB [1]): 0.1 min
Kd (human PDGF-BB [2]): 95 nM
koff (human PDGF-BB [2]): 0.0779 s⁻¹
kon (human PDGF-BB [2]): 824000 M⁻¹ s⁻¹
t½ (human PDGF-BB [2]): 0.1 min
Kd (human VEGF121-His [3]): 0.13 nM
koff (human VEGF121-His [3]): 6.54e-05 s⁻¹
kon (human VEGF121-His [3]): 503000 M⁻¹ s⁻¹
t½ (human VEGF121-His [3]): 177 min
Kd (human VEGF121-His [4]): 0.13 nM
koff (human VEGF121-His [4]): 6.54e-05 s⁻¹
kon (human VEGF121-His [4]): 503000 M⁻¹ s⁻¹
t½ (human VEGF121-His [4]): 177 min

B2: bispecific anti-VEGF/anti-PDGF-B Fab fragment RO7113083 (Fab, V domains shown)
VH: DLQLVESGGGLVKPGGSLRLSCAADGWWFGYTDMSWVRQAPGKGLEWVGSISYKGGSTYYNTKFIGRFTISRDDDTNTLYLQMNSLRAEDTAVYYCARDDGYFDTWGQGTLVTVSS
VL: AIYMHQEPSSLSASVGDRVTITCHGSYWLSNYLAWYQQKPGKAPKLLIYDGKEREHGVPSRFSGSGSHEDYTLTISSLQPEDFATYYCQQYRYHPYTFGHGTKVEIKR
notes: also called R07113083
Kd (human PDGF-BB [2]): 1 nM
t½ (human PDGF-BB [2]): 90 min
Kd (human PDGF-BB [5]): 1.3 nM
t½ (human PDGF-BB [5]): 25 min
Kd (cynomolgus PDGF): 0.7 nM
t½ (cynomolgus PDGF): 53 min
Kd (minipig PDGF): 0.3 nM
t½ (minipig PDGF): 59 min
Kd (rabbit PDGF): 0.6 nM
t½ (rabbit PDGF): 59 min

B4: bispecific anti-VEGF/anti-PDGF-B Fab fragment 28.07 (Fab, V domains shown)
VH: B2 VH with S57H, T58K, Y60L
VL: B2 VL
Kd (human PDGF-BB [5]): 1.4 nM
koff (human PDGF-BB [5]): 0.000483 s⁻¹
kon (human PDGF-BB [5]): 357000 M⁻¹ s⁻¹
t½ (human PDGF-BB [5]): 24 min
Kd (cynomolgus PDGF): 0.6 nM
koff (cynomolgus PDGF): 0.000215 s⁻¹
kon (cynomolgus PDGF): 336000 M⁻¹ s⁻¹
t½ (cynomolgus PDGF): 54 min
Kd (minipig PDGF): 0.3 nM
koff (minipig PDGF): 0.000225 s⁻¹
kon (minipig PDGF): 646000 M⁻¹ s⁻¹
t½ (minipig PDGF): 51 min
Kd (rabbit PDGF): 0.7 nM
koff (rabbit PDGF): 0.000223 s⁻¹
kon (rabbit PDGF): 337000 M⁻¹ s⁻¹
t½ (rabbit PDGF): 52 min
Kd (human VEGF121-His [3]): 0.012 nM
koff (human VEGF121-His [3]): 1.73e-05 s⁻¹
kon (human VEGF121-His [3]): 1.4e+06 M⁻¹ s⁻¹
t½ (human VEGF121-His [3]): 668 min

B5: bispecific anti-VEGF/anti-PDGF-B Fab fragment 28.01 (Fab, V domains shown)
VH: B2 VH
VL: B2 VL with Y3H, H5Y
Kd (human PDGF-BB [5]): 1.3 nM
t½ (human PDGF-BB [5]): 26 min
Kd (cynomolgus PDGF): 0.6 nM
t½ (cynomolgus PDGF): 54 min
Kd (minipig PDGF): 0.3 nM
t½ (minipig PDGF): 69 min
Kd (rabbit PDGF): 0.6 nM
t½ (rabbit PDGF): 67 min

The remaining binders from weak to strong by Kd (minipig PDGF), led by results:

Kd (human PDGF-BB [5]): 1.3 nM
koff (human PDGF-BB [5]): 0.000485 s⁻¹
kon (human PDGF-BB [5]): 368000 M⁻¹ s⁻¹
t½ (human PDGF-BB [5]): 24 min
Kd (minipig PDGF): 0.4 nM
koff (minipig PDGF): 0.000215 s⁻¹
kon (minipig PDGF): 605000 M⁻¹ s⁻¹
t½ (minipig PDGF): 54 min
Kd (rabbit PDGF): 0.7 nM
koff (rabbit PDGF): 0.000218 s⁻¹
kon (rabbit PDGF): 325000 M⁻¹ s⁻¹
t½ (rabbit PDGF): 53 min
Kd (human VEGF121-His [3]): 0.007 nM
koff (human VEGF121-His [3]): 1.15e-05 s⁻¹
kon (human VEGF121-His [3]): 1.56e+06 M⁻¹ s⁻¹
t½ (human VEGF121-His [3]): 1010 min
B3: bispecific anti-VEGF/anti-PDGF-B Fab fragment 28.02 (Fab, V domains shown)
VH: B2 VH with S57H, T58K, Y60L
VL: B2 VL with Y3H, H5Y

Kd (human PDGF-BB [2]): 1 nM
t½ (human PDGF-BB [2]): 44 min
t½ (human PDGF-BB [5]): 24 min
Kd (cynomolgus PDGF): 0.6 nM
t½ (cynomolgus PDGF): 52 min
Kd (minipig PDGF): 0.4 nM
t½ (minipig PDGF): 48 min
Kd (rabbit PDGF): 0.7 nM
t½ (rabbit PDGF): 48 min
B6: bispecific anti-VEGF/anti-PDGF-B Fab fragment P1AA9124 (Fab, V domains shown)
VH: B2 VH
VL: B2 VL with Y3Q, H5T, E7S, H100Q, V104L

— patent US20230105324A1 (Hoffmann-La Roche, published 2023)
